# Assay results: paper PMC6295060
# Tests used:
# DMAP1 [1] = target: DMAP1 (UniProt Q9NPF5); experiment: co-IP; details: reference: WT Bub3, mitotic arrest; sites S211
# DMAP1 [2] = target: DMAP1 (UniProt Q9NPF5); experiment: pull-down of His-Bub3 and GST-DMAP1; details: sites S211
# DMAP1 [3] = target: DMAP1 (UniProt Q9NPF5); experiment: co-IP with anti-Flag antibody; details: reference: WT Flag-rBub3; sites S211
substance,measurement,setting,value
"Bub3 (from UniProt O43684) Bub3 S211A, mitotic arrest",binding against the reference,DMAP1 [1],weaker
Bub3 (from UniProt O43684) WT His-Bub3 with purified p38,binding against the reference,DMAP1 [2]; reference: WT His-Bub3 without p38,gained
Bub3 (from UniProt O43684) Flag-rBub3 S211A,binding against the reference,DMAP1 [3],lost
Bub3 (from UniProt O43684) His-Bub3 S211A,binding against the reference,DMAP1 [2]; reference: WT His-Bub3,lost
